Data reported in the RNAGym collection of RNA variant scans (doi:10.1093/molbev/msab373).

B1: Azoarcus group I ribozyme (parent)
chain: GUGCCUUGCGCCGGGAAACCACGCAAGGGAUGGUGUCAAAUUCGGCGAAACCUAAGCGCCCGCCCGGGCGUAUGGCAACGCCGAGCCAAGCUUCGGCGCCUGCGCCGAUGAAGGUGUAGAGACUAGACGGCACCCACCUAAGGCAAACGCUAUGGUGAAGGCAUAGUCCAGGGAGUGGCGAAAGUCACACAAACCGG

Variants of: B1
Assay: reverse-splicing fitness (ratio to wild type); higher = more active; in vitro selection; Mg2+ level not given
Outline: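 An in vitro group I ribozyme library with randomized positions was T7-transcribed and gel-purified. In triplicate, 10 pmol RNA in EPPS pH 7.5 was reacted with 50 pmoles of a 30-nt RNA substrate for 1 h at 37 °C across several added MgCl2 levels (1–48 mM), then stopped with EDTA. Products were reverse transcribed from a substrate-complementary primer, PCR-amplified and sequenced (HiSeq 4000). Fitness is a variant's read proportion after selection over that before, normalised to wild type.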

Variant	reverse-splicing fitness
GUGCCUUGCGCCGGGAAACCACGCAAGGGAUGGUGUCAAAUUCGGCGAAACCUAAGCGCCCGCCCGGGCGUAUGGCAACGCCGAGCCAAGCUUCGGCGCCUGCGCCGAUGAAGGUGUAGCGACUAGACGGCACCCACCUAAGGCCAACGUUAUGGUGAAGGCAUAGUCAAGGGAGCGGCGAAAGUCACACAAACCGG [A120C A145C C150U C169A U176C]	0.008
GUGCCUUGCGCCGGGAAACCACGCAAGGGAUGGUGUCAAAUUCGGCGAAACCUAAGCGCCCGCCCGGGCGUAUGGCAACGCCGAGCCAAGCUUCGGCGCCUGCGCCGAUGAAGGUGUAGCGACUAGACGGCACCCACCUAAGGCCAACGUUAUGGUGAAGGCAUAGUCAAGGGAGGGGCGAAAGUCACACAAACCGG [A120C A145C C150U C169A U176G]	0.00465
GUGCCUUGCGCCGGGAAACCACGCAAGGGAUGGUGUCAAAUUCGGCGAAACCUAAGCGCCCGCCCGGGCGUAUGGCAACGCCGAGCCAAGCUUCGGCGCCUGCGCCGAUGAAGGUGUAGCGACUAGACGGCACCCACCUAAGGCCAACGUUAUGGUGAAGGCAUAGUCAAGGGAGAGGCGAAAGUCACACAAACCGG [A120C A145C C150U C169A U176A]	0.0105
GUGCCUUGCGCCGGGAAACCACGCAAGGGAUGGUGUCAAAUUCGGCGAAACCUAAGCGCCCGCCCGGGCGUAUGGCAACGCCGAGCCAAGCUUCGGCGCCUGCGCCGAUGAAGGUGUAGCGACUAGACGGCACCCACCUAAGGCCAACGUUAUGGUGAAGGCAUAGUCCAGGGAGUGGCGAAAGUCACACAAACCGG [A120C A145C C150U]	0.46
GUGCCUUGCGCCGGGAAACCACGCAAGGGAUGGUGUCAAAUUCGGCGAAACCUAAGCGCCCGCCCGGGCGUAUGGCAACGCCGAGCCAAGCUUCGGCGCCUGCGCCGAUGAAGGUGUAGCGACUAGACGGCACCCACCUAAGGCCAACGGUAUGGUGAAGGCAUAGUCCAGGGAGUGGCGAAAGUCACACAAACCGG [A120C A145C C150G]	0.279
GUGCCUUGCGCCGGGAAACCACGCAAGGGAUGGUGUCAAAUUCGGCGAAACCUAAGCGCCCGCCCGGGCGUAUGGCAACGCCGAGCCAAGCUUCGGCGCCUGCGCCGAUGAAGGUGUAGCGACUAGACGGCACCCACCUAAGGCCAACGUUAUGGUGAAGGCAUAGUCGAGGGAGGGGCGAAAGUCACACAAACCGG [A120C A145C C150U C169G U176G]	0.00381
GUGCCUUGCGCCGGGAAACCACGCAAGGGAUGGUGUCAAAUUCGGCGAAACCUAAGCGCCCGCCCGGGCGUAUGGCAACGCCGAGCCAAGCUUCGGCGCCUGCGCCGAUGAAGGUGUAGCGACUAGACGGCACCCACCUAAGGCCAACGUUAUGGUGAAGGCAUAGUCGAGGGAGAGGCGAAAGUCACACAAACCGG [A120C A145C C150U C169G U176A]	0.0156
GUGCCUUGCGCCGGGAAACCACGCAAGGGAUGGUGUCAAAUUCGGCGAAACCUAAGCGCCCGCCCGGGCGUAUGGCAACGCCGAGCCAAGCUUCGGCGCCUGCGCCGAUGAAGGUGUAGCGACUAGACGGCACCCACCUAAGGCCAACGUUAUGGUGAAGGCAUAGUCGAGGGAGCGGCGAAAGUCACACAAACCGG [A120C A145C C150U C169G U176C]	0.00823
GUGCCUUGCGCCGGGAAACCACGCAAGGGAUGGUGUCAAAUUCGGCGAAACCUAAGCGCCCGCCCGGGCGUAUGGCAACGCCGAGCCAAGCUUCGGCGCCUGCGCCGAUGAAGGUGUAGCGACUAGACGGCACCCACCUAAGGCCAACGGUAUGGUGAAGGCAUAGUCGAGGGAGGGGCGAAAGUCACACAAACCGG [A120C A145C C150G C169G U176G]	0.00352
GUGCCUUGCGCCGGGAAACCACGCAAGGGAUGGUGUCAAAUUCGGCGAAACCUAAGCGCCCGCCCGGGCGUAUGGCAACGCCGAGCCAAGCUUCGGCGCCUGCGCCGAUGAAGGUGUAGCGACUAGACGGCACCCACCUAAGGCCAACGGUAUGGUGAAGGCAUAGUCGAGGGAGCGGCGAAAGUCACACAAACCGG [A120C A145C C150G C169G U176C]	0.00582
GUGCCUUGCGCCGGGAAACCACGCAAGGGAUGGUGUCAAAUUCGGCGAAACCUAAGCGCCCGCCCGGGCGUAUGGCAACGCCGAGCCAAGCUUCGGCGCCUGCGCCGAUGAAGGUGUAGCGACUAGACGGCACCCACCUAAGGCCAACGGUAUGGUGAAGGCAUAGUCGAGGGAGAGGCGAAAGUCACACAAACCGG [A120C A145C C150G C169G U176A]	0.00848
GUGCCUUGCGCCGGGAAACCACGCAAGGGAUGGUGUCAAAUUCGGCGAAACCUAAGCGCCCGCCCGGGCGUAUGGCAACGCCGAGCCAAGCUUCGGCGCCUGCGCCGAUGAAGGUGUAGCGACUAGACGGCACCCACCUAAGGCCAACGGUAUGGUGAAGGCAUAGUCAAGGGAGUGGCGAAAGUCACACAAACCGG [A120C A145C C150G C169A]	0.0111
GUGCCUUGCGCCGGGAAACCACGCAAGGGAUGGUGUCAAAUUCGGCGAAACCUAAGCGCCCGCCCGGGCGUAUGGCAACGCCGAGCCAAGCUUCGGCGCCUGCGCCGAUGAAGGUGUAGCGACUAGACGGCACCCACCUAAGGCCAACGGUAUGGUGAAGGCAUAGUCGAGGGAGUGGCGAAAGUCACACAAACCGG [A120C A145C C150G C169G]	0.00786
GUGCCUUGCGCCGGGAAACCACGCAAGGGAUGGUGUCAAAUUCGGCGAAACCUAAGCGCCCGCCCGGGCGUAUGGCAACGCCGAGCCAAGCUUCGGCGCCUGCGCCGAUGAAGGUGUAGCGACUAGACGGCACCCACCUAAGGCCAACGGUAUGGUGAAGGCAUAGUCUAGGGAGUGGCGAAAGUCACACAAACCGG [A120C A145C C150G C169U]	0.117
GUGCCUUGCGCCGGGAAACCACGCAAGGGAUGGUGUCAAAUUCGGCGAAACCUAAGCGCCCGCCCGGGCGUAUGGCAACGCCGAGCCAAGCUUCGGCGCCUGCGCCGAUGAAGGUGUAGCGACUAGACGGCACCCACCUAAGGCCAACGAUAUGGUGAAGGCAUAGUCCAGGGAGAGGCGAAAGUCACACAAACCGG [A120C A145C C150A U176A]	0.112
